Data from patent publication US9150630B2, “Use of Idbf” (Industry-Academic Cooperation Foundation, Yonsei University, priority 2008, dated 2015).
Primed or numbered codes have the meaning given here. Ends that are not written are not given here. FITC′ = not defined here

T1: Dvl-1 (Mus musculus, UniProt P51141)
T1 construct: endogenous in cells; host or cells: MC3T3E1 osteoblasts
T1 sequence (P51141 1-695): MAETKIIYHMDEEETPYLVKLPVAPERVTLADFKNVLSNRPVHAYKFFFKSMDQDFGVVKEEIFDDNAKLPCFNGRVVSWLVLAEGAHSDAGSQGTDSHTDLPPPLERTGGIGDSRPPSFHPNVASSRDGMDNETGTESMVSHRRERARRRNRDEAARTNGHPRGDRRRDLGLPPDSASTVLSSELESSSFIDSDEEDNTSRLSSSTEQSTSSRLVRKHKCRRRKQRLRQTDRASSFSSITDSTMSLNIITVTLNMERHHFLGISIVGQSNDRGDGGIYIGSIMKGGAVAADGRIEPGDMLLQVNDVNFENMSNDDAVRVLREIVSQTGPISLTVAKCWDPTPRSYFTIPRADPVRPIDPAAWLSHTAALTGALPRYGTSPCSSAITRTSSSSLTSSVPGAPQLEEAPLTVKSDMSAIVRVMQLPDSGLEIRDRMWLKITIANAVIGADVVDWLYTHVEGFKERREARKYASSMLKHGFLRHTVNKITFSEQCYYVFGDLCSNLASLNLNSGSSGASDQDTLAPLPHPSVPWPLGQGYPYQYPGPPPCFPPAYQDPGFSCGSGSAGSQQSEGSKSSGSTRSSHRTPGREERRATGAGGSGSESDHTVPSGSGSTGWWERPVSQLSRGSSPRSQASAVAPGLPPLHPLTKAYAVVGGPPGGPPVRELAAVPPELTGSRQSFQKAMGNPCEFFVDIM


Legend:
Wnt/β-catenin pathway [1] = assay: pTOPFLASH/pFOPFLASH luciferase reporter assay in MC3T3E1 cells; type: cell-based; conditions: 5 μM PTD-DBMP or 100 ng/ml Wnt3a, 12 hours, FIG. 24
Protocol: To investigate the effect of PTD-DBMP treatment on Wnt/β-catenin pathway of MC3T3E1 cells, 0.5 μg of pTOPFLASH or pFOPFLASH with 50 ng of pCMV-β-Gal was transfected into the cells. After 12 hours, the transfected cells were treated with 100 ng/ml Wnt3a, or 5 μM PTD-DBMP, and then incubated for 12 hours. Then the cells were washed with PBS, and then lysed in Lysis Buffer (Promega). The cell lysates were mixed with Luciferase Substrate (Promega) to monitor the luciferase activities.

Wnt/β-catenin signaling = assay: β-catenin immunoblotting of PTD-DBMP treated HEK293 cells; type: cell-based, human; conditions: 1 μM or 4 μM PTD-DBMP, 12 hours, FIG. 22
Protocol: To investigate the effect of PTD-DBMP in the cells, HEK293 cells were incubated with 1 μM or 4 μM PTD-DBMP for 12 hours, and then the cell lysates were subjected into immunoblotting using anti-β-catenin, and anti-α-tubulin antibodies.

[2] = tested on: MC3T3E1 cells (osteoblast differentiation); assay: RT-PCR of osteoblast differentiation markers in MC3T3E1 cells; type: cell-based; conditions: 10 μM PTD-DBMP or 100 ng/ml Wnt3a, 2 and 4 days, FIG. 25
Protocol: To study the effect of PTD-DBMP on osteoblast differentiation, 100 ng/ml Wnt3a, or 10 μM PTD-DBMP was treated on MC3T3E1 cells. The cells were harvested after 2, and 4 days later, and then subjected into RT-PCR to monitor the amounts of ALP, Fgf18, RANKL, and HPRT mRNAs. The mRNA amounts of osteoblast differentiation markers (ALP, Fgf18, RANKL) were increased by PTD-DBMP treatment, as well as by Wnt3a treatment (FIG. 25).

[3] = tested on: Wnt/β-catenin pathway in MC3T3E1 cells; assay: Immunocytochemistry of PTD-DBMP treated MC3T3E1 cells; type: cell-based; conditions: 5 μM or 10 μM, 12 hours, FIG. 23
Protocol: PTD-DBMP (SEQ ID NO: 26) was treated into MC3T3E1 cells, and then the introduction and effect of PTD-DBMP were monitored by immunocytochemistry analyses. MC3T3E1 cells were incubated on gelatin-coated glasses for 1 day, and then 5 μM or 10 μM PTD-DBMP were treated on the incubated cells for 12 hours. The PTD-DBMP-treated cells were washed with PBS, and then fixed using a fixative solution (99% methanol and 1% formaldehyde). The fixed cells were permeabilized with 0.2% saponin solution, and then incubated with anti-β-catenin antibody (home-made; 1:100). The cells were incubated with Alexafluor 488 conjugated secondary antibody, and then the nucleus of cells were counterstained with DAPI.

HEK293 cells = assay: Introduction of FITC-labelled PTD-DBMP into HEK293 cells (fluorescence microscopy); type: cell-based, human; conditions: 1 μM or 4 μM peptide, 3 hours, FIG. 21
Protocol: To confirm the introduction of two PTD-DBMP into cells, HEK293 cells were seeded and incubated on gelatin-coated glasses for one day, and then 1 μM or 4 μM peptide were treated on the cells. After 3 hours, the cells were washed with PBS, and then fixed using fixative solution (99% methanol and 1% formaldehyde). Nucleus of cells were counterstained using DAPI, and the cells were observed using ECLIPSE TE2000-U microscope.

Wnt/β-catenin pathway [4] = assay: Wnt3a treatment and Idbf overexpression in HEK293 cells (reporter assay, Idbf-Dvl-1 binding); type: cell-based, human; conditions: for effect on Wnt/β-catenin pathway in HEK293 cells: 100 ng/ml Wnt3a 12 hours or 0.5 μg plasmid, FIG. 19
Protocol: Function of Idbf in Wnt/β-catenin pathway was also studied in HEK293 cells, which is a established human embryonic kidney cell-line. HEK293 cells were transfected with 0.5 μg pcDNA3.1 or pcDNA3.1-Idbf-Myc. For reporter assay, 0.5 μg pTOPFLASH or pFOPFLASH with 50 ng pCMV-β-Gal was co-transfected. The transfeced cells were incubated in α-MEM with or without 100 ng/ml Wnt3a for 12 hours. […] The enhancement of Idbf-Dvl-1 binding by Wnt3a treatment was also not observed (FIG. 20).

β-catenin = assay: Idbf overexpression or knock-down in HEK293 cells: β-catenin immunoblot and TOPFLASH reporter; type: cell-based, human; conditions: FIG. 5; for transcriptional activity of β-catenin: pTOPFLASH/pFOPFLASH luciferase; for protein level of β-catenin: transfection, immunoblotting
Protocol: 0.9 kb PCR product was restricted with XbaI and BamHI, and subcloned into a pcDNA3.1/myc His(−) vector (Invitrogen) (pcDNA3.1-Idbf-Myc). Idbf overexpression was performed by transfection of pcDNA3.1-Idbf-Myc into HEK293 cells using Lipofectamine plus reagent (Invitrogen) as the manufacturers' instruments.
Idbf knock-down was performed by transfection of Idbf siRNA into HEK293 cells using Lipofectamine plus reagent (Invitrogen) as the manufacturers' instruments. Idbf siRNA was synthesized using Silence™ siRNA Construction Kit (Ambion). To elevate the efficiency of knock-down, the mixture of two kinds of siRNAs, which are targeting different site of Idbf mRNA, were used.
For immunoblotting, cells were harvested, and lysed in RIPA buffer (50 mM Tris pH 7.5, 150 mM NaCl, 1 mM EDTA, and 1% Triton X-100). All chemicals were purchased from Sigma-Aldrich.
To detect proteins, whole cell lysates or immunoprecipitants were subjected into immunoblotting using anti-β-catenin, anti-Myc, or anti-α-tubulin antibodies. To monitor the transcriptional activity of β-catenin, 0.5 μg of pTOPFLASH or pFOPFLASH (kind gill from Dr. B. Vogelstein and Dr. K. Kinzler in Johns Hopkins Oncology Center, Baltimore, Md.) with 50 ng of pCMV-β-Gal was transfected into HEK293 cells. The luciferease activities, which indicate the transcriptional activity of β-catenin, were normalized by β-galactosidase activities, which show the efficiency of transfection. […] Oppositely, the protein level of β-catenin and its transcriptional activity were increased by Idbf knock-down (FIG. 5B). Error bars in FIG. 5 indicates standard deviation. WCL and IP are abbreviations of whole cell lysate and immunoprecipitation, respectively.

[5] = tested on: Wnt/β-catenin pathway and osteoblast differentiation in MC3T3E1 cells; assay: Idbf overexpression and Wnt3a treatment in MC3T3E1 cells, RT-PCR; type: cell-based; conditions: FIG. 17C; for ALP and Fgf18 mRNA: 100 ng/ml Wnt3a 12 hours, or ascorbic acid and β-glycerol-phosphate 2 days
Protocol: Idbf was overexpressed in MC3T3E1 cells to investigate the function of Idbf in Wnt/β-catenin pathway and osteoblast differentiation. MC3T3E1 cells were transfected with pcDNA3.1 or pcDNA3.1-Idbf-Myc, and then transfected cells were incubated in α-MEM media containing 100 ng/ml Wnt3a for 12 hours or in α-MEM containing 50 mg/l ascorbic acid and 10 mM […] for 2 days. Wnt3a treatment results in mRNA increments of ALP and Fgf18, which were more significant than ascorbic acid and β-glycerol-phosphate treatment (FIG. 17C). […] However, the common target genes of Wnt/β-catenin pathway, cyclin D and c-myc were not regulated by Wnt3a or ascorbic acid and β-glycerol-phosphate treatment (FIG. 17C).

Dvl-1 = target: T1, Dvl-1; assay: Idbf-Dvl-1 binding by immunoprecipitation with anti-Idbf antibody; conditions: with or without Wnt3a, FIG. 18B (MC3T3E1 osteoblast)
Description: To investigate the importance of Idbf-Dvl-1 binding in Idbf function, a mutant of Idbf, in which Dvl binding minimal peptide (DBMP; RKTGHQICKFRKC, SEQ ID NO: 4) was removed, was produced (pcDNA3.1-Idbf-ΔDBMP-Myc).
To monitor Idbf-Dvl-1 binding, cell lysates were subjected into immunoprecipitation using anti-Idbf antibody. Whole cell lysates were subjected into immunoblotting to detect the amounts of proteins, including β-catenin, α-tubulin, and Dvl-1.

| Molecule | activation of Wnt/β-catenin pathway (luciferase activity normalized by β-galactosidase) (Wnt/β-catenin pathway [1]) | amount of β-catenin (Wnt/β-catenin signaling) | mRNA amounts of osteoblast differentiation markers (ALP, Fgf18, RANKL) [2] | activation of Wnt/β-catenin pathway (β-catenin in nucleus) [3] | introduction of peptide into cells (green fluorescence by FITC on nucleus and cytosol) [3] | introduction of peptide into cells (green fluorescence in nucleus and cytosol) (HEK293 cells) | effect on Wnt/β-catenin pathway in HEK293 cells (Wnt/β-catenin pathway [4]) | transcriptional activity of β-catenin (β-catenin) | protein level of β-catenin (β-catenin) | ALP and Fgf18 mRNA [5] | binding to Dvl-1 (Dvl-1) | enhancement of Idbf-Dvl-1 binding (Wnt/β-catenin pathway [4]; Wnt3a treatment, FIG. 20) | cyclin D and c-myc (common target genes of Wnt/β-catenin pathway) ([5]; 100 ng/ml Wnt3a 12 hours) |
| --- | --- | --- | --- | --- | --- | --- | --- | --- | --- | --- | --- | --- | --- |
| PTD-DBMP: PTD and glycine linker on the amino terminus of DBMP, FITC on the carboxyl terminus; two peptides in section 7, SEQ ID NO: 26 in section 8 (RRRRRRRRGGGGRKTGHQICKFRKCK-{FITC′}; cysteine pairing not given here) | as significant as the activation by Wnt3a treatment | increased | increased | accumulation of β-catenin (red) in nucleus of the cells | successfully introduced into the cells | successfully introduced into the cells | – | – | – | – | – | – | – |
| Idbf: novel Dvl-binding protein (SEQ ID NO: 1), overexpressed by transfection of pcDNA3.1-Idbf-Myc (protein, listed as Homo sapiens, Myc tag) MSSLGGGSQDAGGSSSSSTNGSGGSGSSGPKAGAADKSAVVAAAAPASVADDTPPPERRNKSGIISEPLNKSLRRSRPLSHYSSFGSSGGSGGGSMMGGESADKATAAAAAASLLANGHDLAAAMAVDKSNPTSKHKSGAVASLLSKAERATELAAEGQLTLQQFAQSTEMLKRVVQEHLPLMSEAGAGLPDMEAVAGAEALNGQSDFPYLGAFPINPGLFIMTPAGVFLAESALHMAGLAEYPMQGELASAISSGKKKRKRCGMCAPCRRRINCEQCSSCRNRKTGHQICKFRKCEELKKKPSAALEKVMLPTGAAFRWFQ | – | – | – | – | – | – | very marginal | reduced | reduced | suppressed increment | binds to Dvl-1 in Wnt3a-dependent manner | – | – |
| Idbf siRNA: mixture of two siRNAs targeting different sites of Idbf mRNA (SEQ ID NO: 12-15) (nucleic acid, listed as RNA, chemistry not given here) chain 1: UUGUAGGAAUCGAAAGACUUU chain 2: AGUCUUUCGAUUCCUACAAUU chain 3: GCAGUUUGCGCAGUCCACAUU chain 4: UGUGGACUGCGCAAACUGCUU | – | – | – | – | – | – | – | increased | increased | – | – | – | – |
| Wnt3a: Wnt ligand used at 100 ng/ml to activate the Wnt/β-catenin signaling pathway (protein, UniProt P56704 19-352, looked up) Protein Wnt-3a: SYPIWWSLAVGPQYSSLGSQPILCASIPGLVPKQLRFCRNYVEIMPSVAEGIKIGIQECQHQFRGRRWNCTTVHDSLAIFGPVLDKATRESAFVHAIASAGVAFAVTRSCAEGTAAICGCSSRHQGSPGKGWKWGGCSEDIEFGGMVSREFADARENRPDARSAMNRHNNEAGRQAIASHMHLKCKCHGLSGSCEVKTCWWSQPDFRAIGDFLKDKYDSASEMVVEKHRESRGWVETLRPRYTYFKVPTERDLVYYEASPNFCEPNPETGSFGTRDRTCNVSSHGIDGCDLLCCGRGHNARAERRREKCRCVFHWCCYVSCQECTRVYDVHTCK | activation | – | increased | – | – | – | very marginal | – | – | increments | – | not observed | not regulated |
